The text below walks through data of US20240083999A1 (published 2024).

B1: JYK-D12/JYK-D12 homodimer (VHH)
chain: QVQLVESGGGLVQPGGSLGLSCAASGFTLAYYGIGWFRQAPGKEREGVACISSSDLSTYYADSVKGRFTISRDNAKDTVYLQMNSLKPEDTAVYYCAAGTWDLKFGYSRSNCVRSYEYDYWGQGTQVTVSSGGGGSGGGGSGGGGSQVQLVESGGGLVQPGGSLGLSCAASGFTLAYYGIGWFRQAPGKEREGVACISSSDLSTYYADSVKGRFTISRDNAKDTVYLQMNSLKPEDTAVYYCAAGTWDLKFGYSRSNCVRSYEYDYWGQGTQVTVSS
B2: hIL-6-binding VHH JYK-F12 (Trx/JYK-F12/E) (VHH)
VHH: QVQLAETGGGSVQAGGSLTLSCAASGRTFSSRAMGWFRQAPGKEREFVAVISWTGSPYYTDSVKGRFTISRDDAKNTVYLQMNSLKPEDTAVYYCAATSEHVMLVVTTRGGYDYWGQGTQVTVSS
B3: hIL-6-binding VHH JYK-H9 (Trx/JYK-H9/E) (VHH)
VHH: QLQLVETGGGLVQPGGSLRLSCAASGFTLDYYAIGWFRQAPGKEREGVSCLSSSDRSTYYVDSVKGRFTISRDDDKNTAYLQMNSLKPEDTATYYCAAGTWDLKWGYNISACVGSYEYDYWGQGTQVTVSS
B4: hIL-6-binding VHH JYK-D12 (Trx/JYK-D12/E) (VHH)
VHH: QLQLVESGGGLVQPGGSLGLSCAASGFTLAYYGIGWFRQAPGKEREGVACISSSDLSTYYADSVKGRFTISRDNAKDTVYLQMNSLKPEDTAVYYCAAGTWDLKFGYSRSNCVRSYEYDYWGQGTQVTVSS
B5: hIL-6-binding VHH JYK-A9 (Trx/JYK-A9/E) (VHH)
VHH: QVQLVESGGGLVQAGDSLTLSCAASGRPFSSFAMGWFRQAPGKEREFVAAITWSRGTTHYADSVKGRFTISGDNAKNTVFLQMNSLKPEDTAVYYCAAADGWKVVSTASPAYDYWGQGTQVTVSS
B6: hIL-6-binding VHH JYK-A1 (Trx/JYK-A1/E) (VHH)
VHH: QLQLAETGGGLVQPGGSLRLSCAASGFTLDYYAVGWFRQAPGKEREGISCISSSDLKTYYADSVKGRFTISRDYAKSTVSLQMNSLKPEDTGVYYCAAGTWDLKFGYNISACVGSYEYDYWDQGTQVTVSS

By EC50 is commonly meant the midpoint of the concentration-response curve. A lower EC50 goes with a more potent agent.

In one assay the target is T1, human interleukin 6 (hIL-6) (UniProt P05231 30-212). Kind of assay: ELISA. A general note: ELISA stands for enzyme-linked immunosorbent assay.
T1 sequence (P05231 30-212): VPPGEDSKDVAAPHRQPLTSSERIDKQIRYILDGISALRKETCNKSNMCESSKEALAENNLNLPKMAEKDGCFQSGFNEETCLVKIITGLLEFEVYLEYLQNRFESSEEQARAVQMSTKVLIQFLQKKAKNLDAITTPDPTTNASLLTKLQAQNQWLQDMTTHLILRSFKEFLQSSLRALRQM
With B1, the concentration giving a half-maximal response (EC50) worked out at 0.0842 nM.

For a further assay, the target named is T1, human interleukin 6 (hIL-6). Kind of assay: ELISA. The source holds these as a separate data set.
As to B2, the EC50 amounted to 14.4 nM.

For B3, the EC50 was determined as 0.811 nM.

Molecule B4 had an EC50 of 0.324 nM. Against the preceding molecule, the EC50 is about 2.5-fold lower.

The molecule B5 had a 50% effective concentration (EC50) of 27.7 nM. Compared with the last molecule, the EC50 is about 85-fold higher.

In turn, B6 gave a half-maximal effective concentration (EC50) of 0.795 nM.
